Literature values in patent publication US10544449B2, “Bis-biotinylation tags” (Pacific Biosciences of California, Inc., priority 2013, dated 2020).

Tests used:
[1] = cited from earlier work
[2] = compared with streptavidin; cited from earlier work

streptavidin
accumulation in kidney, share of injected dose ([1]; injected streptavidin): 15-20% | time remaining in the kidneys ([1]; mice, rats, and rabbits): 3 to 4 days

traptavidin
slower biotin off-rate [2]: ~10 fold
